From patent US20120094909A1 (Bristol-Myers Squibb, published 2012)

How the values were obtained:
[1] = target: T1, human PCSK9 (proprotein convertase subtilisin kexin type 9) (human, UniProt Q8NBP7 31-692); test: BLI, biotinylated hPCSK9 on sensor tips
T1 construct: Directly immobilized (SPR ProteOn), biotinylated (BLI), or in solution, depending on the assay; also called hPCSK9
Procedure: Tips were then immersed into a buffer-only well for observation of Adnectin dissociation. Experiments were performed in a temperature controlled environment at either 25 or 37° C., and the oscillation speed was set at 1500 rpm.
Binding interaction analysis was performed using proprietary software from Fortebio (Fortebio Data Analysis Software version 6.3.0.36). Global fits were performed for all samples, using a 1:1 binding model. The nature of these global fits constrained all values of concentration to a single pair of association and dissociation rates that were themselves constrained to each other. Affinities (KD), association and dissociation rates were averaged over the various loading levels used in the analysis.

[2] = target: T2, human PCSK9 (proprotein convertase subtilisin kexin type 9) (human, UniProt Q8NBP7 31-692); test: PCSK9:EGFA FRET, competitor EGFA peptide
T2 construct: immobilized directly (ProteOn), biotinylated (Octet) or in solution, according to the assay; also called hPCSK9; PCSK9-AF647 (labelled form)

[3] = target: T2, human PCSK9 (proprotein convertase …); test: cell-based or functional assay

Binder	EC50 [2] [nM]	LDLR Depletion (% inhibition at 75 nM) [3] [%]	LDLR Depletion EC50 [3] [nM]	other results
ATI001114 (designed binder, PEGylated on the cysteine of the C-terminal GSGC tail (two-branched 40 kDa PEG), PEGylated version of the 2013E01 Adnectin, His6-tagged; also called ATI1114) MGVSDVPRDLEVVAATPTSLLISWVPPSDDYGYYRITYGETGGNSPVQEFTVPIGKGTATISGLKPGVDYTITVYAVEFPWPHAGYYHRPISINYRTGSGCHHHHHH				Kd [1]: 4.88 nM; koff [1]: 0.000395 s⁻¹; kon [1]: 80700 M⁻¹ s⁻¹
ATI001117 (designed binder, PEGylated on the cysteine of the C-terminal tail (marked by asterisk in Table 5 as having been pegylated; PEG not specified), Anti-PCSK9 Adnectin, cysteine mutant of 2011H05, His6-tagged; also called 2011H05 Cys mut) MGVSDVPRDLEVVAATPTSLLISWVPSSHAYGYYRITYGETGGNSPVQEFTVPVGVGTATISGLKPGVDYTITVYAVEYAFEGAGYYHRPISINYRTGSGCHHHHHH				Kd [1]: 0.554 nM; koff [1]: 5.07e-05 s⁻¹; kon [1]: 145000 M⁻¹ s⁻¹
ATI001119 (designed binder, PEGylated on the cysteine of the C-terminal tail (marked by asterisk in Table 5 as having been pegylated; PEG not specified), Anti-PCSK9 Adnectin, cysteine mutant of 2012A04, His6-tagged; also called 2012A04 Cys mut) MGVSDVPRDLEVVAATPTSLLISWRPPSNGHGYYRITYGETGGNSPVQEFTVPVNEGTATISGLKPGVDYTITVYAVEFPFKWSGYYHRPISINYRTGSGCHHHHHH				Kd [1]: 5.3 nM; koff [1]: 0.000445 s⁻¹; kon [1]: 81900 M⁻¹ s⁻¹
2382D08 (designed binder) MGVSDVPRDLEVVAATPTSLLISWDAPADGYGYYRITYGETGGNSPVQEFTVPVSKGTATISGLKPGVDYTITVYAVEFPFPGSGYYHRPISINYRTEIDKPSQHHHHHH	3.1	107		
1784F03-m1 (designed binder) MGVSDVPRDLEVVAATPTSLLISWDAPIHAYGYYRITYGETGGNSPVQEFTVPGSEGTATISGLKPGVDYTITVYAVEYTFKHSGYYHRPISINYRTEIDKPSQHHHHHH			> 2000	
2971A03 (designed binder, Anti-PCSK9 Adnectin, His6-tagged) MGVSDVPRDLEVVAATPTSLLISWDPPSDDYGYYRITYGETGGNSPVQEFTVPIGKGTATISGLKPGVDYTITVYAVEFPWPHAGYYHRPISINYRTEIDKPSQHHHHHH				Kd [1]: 0.806 nM; koff [1]: 0.00042 s⁻¹; kon [1]: 574000 M⁻¹ s⁻¹
ATI001168 (designed binder) MGVSDVPRDLEVVAATPTSLLISWEPPSHAYGYYRITYGETGGNSPVQEFTVPIGKGTATISGLKPGVDYTITVYAVEYPWKGSGYYHRPISINYRTEIDKPSQHHHHHH				Kd [1]: 0.586 nM; koff [1]: 0.000333 s⁻¹; kon [1]: 583000 M⁻¹ s⁻¹
1784F03-m2 (designed binder) MGVSDVPRDLEVVAATPTSLLISWDAPAHAYGYYRITYGETGGNSPVQEFTVPGSKGTATISGLKPGVDYTITVYAVEYTFKHSGYYHRPISINYRTEIDKPSQHHHHHH			> 2000	
1784F03-m3 (designed binder) MGVSDVPRDLEVVAATPTSLLISWDAPAVTYGYYRITYGETGGNSPVQEFTVPGSKSTATISGLKPGVDYTITVYAVEYTFKHSGYYHRPISINYRTEIDKPSQHHHHHH			> 2000	
ATI001175 (designed binder) MGVSDVPRDLEVVAATPTSLLISWDPPSHAYGYYRITYGETGGNSPVQEFTVPIGKGTATISGLKPGVDYTITVYAVEYPWKGSGYYHRPISINYRTEIDKPSQHHHHHH				Kd [1]: 0.543 nM; koff [1]: 0.000352 s⁻¹; kon [1]: 656000 M⁻¹ s⁻¹
2011H05(V23E) (designed binder) MGVSDVPRDLEVVAATPTSLLISWEPSSHAYGYYRITYGETGGNSPVQEFTVPVGVGTATISGLKPGVDYTITVYAVEYAFEGAGYYHRPISINYRTEIDKPSQHHHHHH	7.4		12	
2011H05(V23D) (designed binder) MGVSDVPRDLEVVAATPTSLLISWDPSSHAYGYYRITYGETGGNSPVQEFTVPVGVGTATISGLKPGVDYTITVYAVEYAFEGAGYYHRPISINYRTEIDKPSQHHHHHH	5.5		18	
2971E02 (designed binder, Anti-PCSK9 Adnectin, His6-tagged) MGVSDVPRDLEVVAATPTSLLISWDAPSDDYGYYRITYGETGGNSPVQEFTVPIGKGTATISGLKPGVDYTITVYAVEFPWPHAGYYHRPISINYRTEIDKPSQHHHHHH				Kd [1]: 1.78 nM; koff [1]: 0.000555 s⁻¹; kon [1]: 355000 M⁻¹ s⁻¹
2011B11 (designed binder) MGVSDVPRDLEVVAATPTSLLISWAPPSDAYGYYRITYGETGGNSPVQEFTVPIGKGTATISGLKPGVDYTITVYAVEYPYSHAGYYHRPISINYRTEIDKPSQHHHHHH	1.7	144		
2382B08 (designed binder) MGVSDVPRDLEVVAATPTSLLISWDAPADAYGYYRITYGETGGNSPVQEFTVPSSKGTATISGLKPGVDYTITVYAVEFAFPGAGYYHRPISINYRTEIDKPSQHHHHHH	2.9	107		
2382C11 (designed binder) MGVSDVPRDLEVVAATPTSLLISWDAPAGGYGYYRITYGETGGNSPVQEFTVPVSKGTATISGLKPGVDYTITVYAVEYDFAGSGYYHRPISINYRTEIDKPSQHHHHHH	3.7	82.9		
2971A09 (designed binder, Anti-PCSK9 Adnectin, His6-tagged) MGVSDVPRDLEVVAATPTSLLISWDAPADDYGYYRITYGETGGNSPVQEFTVPIGKGTATISGLKPGVDYTITVYAVEFPWPHAGYYHRPISINYRTEIDKPSQHHHHHH				Kd [1]: 2.79 nM; koff [1]: 0.00105 s⁻¹; kon [1]: 399000 M⁻¹ s⁻¹
2382B11 (designed binder) MGVSDVPRDLEVVAATPTSLLISWDAPAAAYGYYRITYGETGGNSPVQEFTVPVSKGTATISGLKPGVDYTITVYAVEYDFAGSGYYHRPISINYRTEIDKPSQHHHHHH	2.9	88.8		
2382H11 (designed binder) MGVSDVPRDLEVVAATPTSLLISWDAPADGYGYYRITYGETGGNSPVQEFTVPVFKGTATISGLKPGVDYTITVYAVEFDYPGSGYYHRPISINYRTEIDKPSQHHHHHH	2.9	117		
2382E09 (designed binder) MGVSDVPRDLEVVAATPTSLLISWDAPAEAYGYYRITYGETGGNSPVQEFTVPVSKGTATISGLKPGVDYTITVYAVEYDFPGSGYYHRPISINYRTEIDKPSQHHHHHH	6.2	97.2		
2382F09 (designed binder) MGVSDVPRDLEVVAATPTSLLISWDAPAAAYGYYRITYGETGGNSPVQEFTVPVSKGTATISGLKPGVDYTITVYAVEYDFPGSGYYHRPISINYRTEIDKPSQHHHHHH	3.1	110		
2382F08 (designed binder) MGVSDVPRDLEVVAATPTSLLISWDAPAEAYGYYRITYGETGGNSPVQEFTVPVSKGTATISGLKPGVDYTITVYAVEFTYPGSGYYHRPISINYRTEIDKPSQHHHHHH	2.5	105		
2382H07 (designed binder) MGVSDVPRDLEVVAATPTSLLISWDAPADAYGYYRITYGETGGNSPVQEFTVPGSKGTATISGLKPGVDYTITVYAVEFDFPGSGYYHRPISINYRTEIDKPSQHHHHHH	2.7	86.2		
1923B02(N82I) (designed binder) MGVSDVPRDLEVVAATPTSLLISWTPPPKGYGYYRITYGETGGNSPVQEFTVPVGEGTATISGLKPGVDYTITVYAVEYTYIGAGYYHRPISINYRTGSGSHHHHHH			14	
1922G04(R25S) (designed binder) MGVSDVPRDLEVVAATPTSLLISWSPPSHAYGYYRITYGETGGNSPVQEFTVPIGKGTATISGLKPGVDYTITVYAVEYPWKGSGYYHRPISINYRTGSGSHHHHHH			21	
1923B02(N82E) (designed binder) MGVSDVPRDLEVVAATPTSLLISWTPPPKGYGYYRITYGETGGNSPVQEFTVPVGEGTATISGLKPGVDYTITVYAVEYTYEGAGYYHRPISINYRTGSGSHHHHHH			28	
1923B02(T80A) (designed binder) MGVSDVPRDLEVVAATPTSLLISWTPPPKGYGYYRITYGETGGNSPVQEFTVPVGEGTATISGLKPGVDYTITVYAVEYAYNGAGYYHRPISINYRTGSGSHHHHHH			42	

Second part, led by results:

EC50 [2] [nM]	LDLR Depletion (% inhibition at 75 nM) [3] [%]	LDLR Depletion EC50 [3] [nM]	Binder	other results
4.5			2451B06 (designed binder) MGVSDVPRDLEVVAATPTSLLISWDAPADGGYGYYRITYGETGGNSPVQEFTVPVSKGTATISGLKPGVDYTITVYAVEFDFPGAGYYHRPISINYRTEIDKPSQHHHHHH	
3.2	106		2451A02 (designed binder) MGVSDVPRDLEVVAATPTSLLISWDAPAAGYGYYRITYGETGGNSPVQEFTVPVSKGTATISGLKPGVDYTITVYAVEFPFPGSGYYHRPISINYRTEIDKPSQHHHHHH	
5.3	71.4		2451B02 (designed binder) MGVSDVPRDLEVVAATPTSLLISWDAPAAAYGYYRITYGETGGNSPVQEFTVPVSKGTATISGLKPGVDYTITVYAVEFDYPGSGYYHRPISINYRTEIDKPSQHHHHHH	
